This series concerns the molecule itself. Nature of the series: SEC-MALS. On the technique in general: SEC sorts molecules by how far they enter the pores of the column.

B1: Pseudomonas aeruginosa PAO1 glutamyl-tRNA synthetase (enzyme, UniProt Q9XCL6 1-494, looked up)
chain: MTTVRTRIAPSPTGDPHVGTAYIALFNLCFARQHGGQFILRIEDTDQLRSTRESEQQIYDALRWLGIEWDEGPDVGGPHGPYRQSERGHIYKKYSDELVEKGHAFTCFCTPERLDAVRAEQMARKETPRYDGHCMHLPKDEVQRRLAAGESHVTRMKVPTEGVCVVPDMLRGDVEIPWDRMDMQVLMKADGLPTYFLANVVDDHLMGITHVLRGEEWLPSAPKLIKLYEYFGWEQPQLCYMPLLRNPDKSKLSKRKNPTSITFYERMGYLPQALLNYLGRMGWSMPDEREKFTLAEMIEHFDLSRVSLGGPIFDLEKLSWLNGQWIREQSVEEFAREVQKWALNPEYLMKIAPHVQGRVENFSQIAPLAGFFFSGGVPLDASLFEHKKLDPTQVRQVLQLVLWKLESLRQWEKERITGCIQAVAEHLQLKLRDVMPLMFPAITGHASSVSVLDAMEILGADLSRYRLRQALELLGGASKKETKEWEKIRDAIPG
Usually stoichiometry N stands for the number of molecules, sites or subunits per partner or assembly. As to B1, the “stoichiometry N” value stood at 2.
